The source of these data is the supplement of paper PMC12042874.

± gives the uncertainty stated by the source.

The data set in a line: amyloid nucleation score (Sup35N fusion, yeast selection) (log enrichment); library NNK2; higher = more nucleation; inactive = no reads after selection. An outline of the steps: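 Output and input plasmid inserts were sequenced by Illumina after psi-negative yeast carrying Sup35N fused to peptides of 20 random codons had been induced 24 hours with 100 μM copper sulfate and grown 7 days at 30°C on medium lacking adenine and uracil. The nucleation score is the DiMSum log enrichment of output over input reads, centred on the mode score of non-aggregating sequences. Sequences with under 100 input reads were excluded.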
As to FTCNACGYERSSVAYRNNPL, the amyloid nucleation score is -0.22 ± 1.1.
The result for ALERWS reads 0.024 ± 0.74; that for AKVACKDGLHACESESGFIW, 1.54 ± 0.3; that for MIQRFVISSGYRGFYLTLLI, “inactive”.
The result for IFANVFANWHVGYLFTGSYY reads 4.02 ± 0.081; that for GTGLNKHNNSC, 0.36 ± 0.19; that for GVSLLVSTSHGFVREPQVTS, 0.526 ± 0.66.
The result for QKACWNPGQRLLVTDLHYQP reads 0.27 ± 0.64; that for VHKYSSGMDYRSVVNLETLG, 0.192 ± 1.
In turn, IAVRDALVSVQLLPPENVGV registered an amyloid nucleation score of 1.13 ± 0.15.
For EYHFCTWFRVDIPFVFHDVV, the amyloid nucleation score was -0.072 ± 1.1.
LGMCYWGLVTCH had an amyloid nucleation score of 0.749 ± 0.38.
As to VAYLNLCLS, the amyloid nucleation score result is “inactive”.
Take TLTILRVTCPLFSDGIMFKR: the amyloid nucleation score is 0.609 ± 0.47.
As for RTSCVYSHWQHNIERLLGRW, the amyloid nucleation score entry was “inactive”.
The result for VPHHPRVGSLPIHNSAAPYM reads -0.683 ± 0.45; that for TLCVAIMYMHLGYAL, 0.178 ± 0.5; that for VSSTSLNSKDQWCCCERGSP, 0.619 ± 0.64.
In the case of YSFFCSMILYPIHDNVGWSF it was 4.86 ± 0.088; in that of HNTAMGLELVPQKKNGVK, -0.06 ± 1.
The result for RSYFSDFH reads “inactive”; that for ASAVV, 0.402 ± 0.26; that for VLGLKKSADYKS, -0.556 ± 0.74.
MRVDLKLVSAYLKSRFGPMF yielded an amyloid nucleation score of -0.341 ± 0.79.
In the case of WLYCVVTS it was 1.63 ± 0.42; in that of AWDDL, 0.154 ± 0.45.
The result for SIRIKRLSNLQSRNPVRPRV reads -0.578 ± 1.1.
In turn, VYGFP had an amyloid nucleation score of 7.112 ± 0.048.
In turn, VSKRNDLQTSFLYMMHLALQ displayed an amyloid nucleation score of -0.536 ± 1.
In the case of IFVLVS, the amyloid nucleation score worked out at 0.131 ± 0.38.
The result for ALGSRSTDSGSWITNFLSSR reads -0.213 ± 0.79.
For ADCVSICVSYRRFHLAKYR, the amyloid nucleation score worked out at 2.73 ± 0.11.
On to HDYRVTYDVF, for which the amyloid nucleation score was -1.24 ± 1.1.
On to WFAWYCSSRYRHRR, for which the amyloid nucleation score was 3.57 ± 0.087.
The result for AFSMRVGDFEIHRFSVVFRR reads -0.247 ± 0.53.
The result for YIISYFLKMGSQ reads 4.95 ± 0.092; that for CRLCWE, -0.459 ± 0.61; that for HSSIIKSVAWAFNYDA, 0.159 ± 0.42.
In turn, MVVEFCYVRYRAN registered an amyloid nucleation score of 0.716 ± 0.6.
As to MYTLYS, the amyloid nucleation score entry was “inactive”.
In the case of LGHHVQYLRFVWLWQND it was 1.17 ± 0.22.
Substance TQVLYSSCFVVVLSYLSRQD gave an amyloid nucleation score of 4.51 ± 0.086.
In the case of SRFPGCSVSTGRHRTKVSSR it was 0.177 ± 0.43; in that of WHMSWLK, 0.114 ± 0.63.
KRKLSKYFLRLKLKCFWVM showed an amyloid nucleation score of -0.753 ± 0.48.
Substance LYKSSQKKPQTLNDFQIAMW showed an amyloid nucleation score of 0.193 ± 0.65.
Regarding VNSNEVFIYPFTNLNFMML, the amyloid nucleation score worked out at 5.17 ± 0.087.
In the case of FICCNNSQIRVSFWLRTWYL it was 3.39 ± 0.048; in that of LLWCEWKHG, 4.58 ± 0.076; in that of HCRKQIMMGDFKIQGNRGVG, 0.448 ± 0.66.
In the case of GDFSFCTHLLSYNLRGWPVV it was 0.192 ± 0.74; in that of ACDVNWLMNTIHQNNCCFAH, -0.716 ± 1.1; in that of KFLLGSVGTLQSNPTLFHLR, 0.095 ± 0.33.
In the case of LYHDEALVWNLRDVSRIYRL it was 3.59 ± 0.1; in that of TLSCKFIKGWLIQQYSHNKD, -0.187 ± 0.76; in that of VSLSLC, -0.288 ± 0.5.
Substance EFCMEDQSMSLLWDYY yielded an amyloid nucleation score of -0.183 ± 1.
For the substance VRGRVAHRRMGSTFVISAES, the amyloid nucleation score is 0.266 ± 0.74.
The result for YQHDT reads 0.871 ± 0.27.
The result for FMTSWTVYSSRAYLHENVGT reads 1.08 ± 0.37; that for VSYVYYSM, -0.242 ± 1.1; that for LRLFCDMYTISSNAVDFVKF, “inactive”.
Consider LAPCISNMSRLL, for which the amyloid nucleation score is -1.25 ± 0.36.
The result for RIYLVAIYL reads 3.49 ± 0.067.
Turning to IRNTLPAAIDVSATVTFVIL, the amyloid nucleation score came to 3.17 ± 0.12.
The result for YWACDTFSILVLGNTVDSLD reads “inactive”; that for NPWIAIKWHNTVFLRHIWQM, -0.494 ± 0.22.
QCYAMSSLMMLYLFFLWGCG displayed an amyloid nucleation score of -1.05 ± 0.55.
The result for SCRVRFNRSCAPGNSQIGMS reads 8.674 ± 0.058.
Turning to SLDGISHHSTDVNLVLNCYR, the amyloid nucleation score came out at 5.222 ± 0.045.
The result for TKQPSFTCPGLSSRILRRLK reads 3.04 ± 0.18; that for TCSRERGRRWFGICASYSCE, 0.629 ± 0.47.
Regarding TGHWQLQNSSQA, the amyloid nucleation score amounted to 0.841 ± 0.28.
In the case of AVDAVGSLMKRALRLRSMFG it was 1.12 ± 0.44; in that of MYDFLVKGRGVCVNLGNSTW, -1.21 ± 0.48; in that of KGWWGVIRDYREWFTGSRWG, 0.594 ± 0.47.
In the case of SSYNSGLRLLSFTCCV it was 9.355 ± 0.052; in that of NEYYAFFRLSADSASS, 0.571 ± 0.51; in that of TTLRPLYSTWGSQMVFPGLC, 0.409 ± 0.8.
Turning to RRLFSVKIAYLCDT, the amyloid nucleation score was found to be 2.63 ± 0.2.
In the case of VRFHVWDKGHRMI it was 1.47 ± 0.18.
In the case of QNCQFGMH it was 0.88 ± 0.48; in that of DNCVIRALQRRNVLVV, -1.18 ± 0.39; in that of YHLLGALYNDAWVIWETTVL, -0.116 ± 0.76.
In the case of WLTSS it was -0.173 ± 0.54.
IAYNMRNGH displayed an amyloid nucleation score of 0.949 ± 0.74.
In turn, MMVRN showed an amyloid nucleation score of 1.22 ± 0.57.
With SWSWSMGGNFRMVWSL, the amyloid nucleation score amounted to 5.33 ± 0.06.
For NGSRI, the amyloid nucleation score stood at 0.018 ± 0.31.
LIVYKLV had an amyloid nucleation score of -0.094 ± 0.74.
The result for TCKVRLRHVDYNCIMVLLLM reads -0.359 ± 0.45; that for ALCGCPCRKPSATVINLPLF, 0.165 ± 0.37; that for TWVNYIIRKVRLVTIRLYVY, -0.011 ± 0.65.
The result for RDNRSLTELLNRTMVHFVIM reads “inactive”; that for IAFRTSLYRD, -1.39 ± 0.48.
The substance VKREVLP registered an amyloid nucleation score of 0.117 ± 0.37.
In the case of YCSLLL it was 4.79 ± 0.074.
The result for TCVRWYGNIW reads -0.424 ± 0.27; that for AGVCCSVSNILWKCTSSSNG, 9.932 ± 0.023.
The result for PFMRYPWYFIAGYV reads -1.52 ± 0.49; that for TPNYLSHTVVCVCINNVLIF, 4.74 ± 0.058; that for RWIVRDSFESWFMVLD, -0.267 ± 0.35.
In turn, LQHSTRLNWD returned an amyloid nucleation score of 0.954 ± 0.51.
Turning to LDVIDGYWTGRMTSSFSWMN, the amyloid nucleation score worked out at 0.679 ± 0.47.
In the case of IFEHS it was 0.346 ± 0.61; in that of SPTCWRRRTPLIVKYRFISV, 1.15 ± 0.34.
FCWRNCLNVIDTF yielded an amyloid nucleation score of -1.22 ± 0.35.
In the case of VCSPIG it was 0.063 ± 0.45.
In the case of TSMVNSFYKTRGTIK, the amyloid nucleation score result was “inactive”.
In the case of YANVA it was -1.65 ± 0.75.
Consider AEANLNFGLMDGAMSVKRAE, for which the amyloid nucleation score is -0.329 ± 0.55.
Consider EWLIAW, for which the amyloid nucleation score was 1.29 ± 0.25.
As to KGQVLWTLGCMSIFVSMTNM, the amyloid nucleation score was determined as 5.58 ± 0.078.
The result for FFFVLFGFWYKTRWSMCISK reads 2.31 ± 0.22.
The result for KTMANI reads -0.403 ± 0.37.
The result for DISVYSDFVLSFICADVHPS reads 5.02 ± 0.04.
Consider ITIQKIVEYISLNPEDT, for which the amyloid nucleation score turned out to be 5.878 ± 0.055.
In the case of RIWYY it was “inactive”; in that of CSKMLTSNRVC, -0.583 ± 1.1; in that of QICHHIDYVFRCHDI, 0.585 ± 0.8.
DTGNPVVWKRTVNCLSQVLW yielded an amyloid nucleation score of 0.368 ± 0.62.
In the case of FYVPSS it was -0.158 ± 0.63.
In the case of YKCRDLFGGRQINREHYLCY it was -1.26 ± 0.62.
VTPTFCETLVKPLHALHTNC displayed an amyloid nucleation score of -1.22 ± 0.62.
In the case of QWCLSNNVLWEMGVW it was “inactive”.
The result for TICWHGFNR reads 0.119 ± 0.76.
The result for SLGEGISFIVWCDGILLLGC reads -1.15 ± 0.76; that for MSFNGCFDRMRREDRYEI, 0.16 ± 0.65; that for FPCRGLGGVLW, 1.97 ± 0.14.
Turning to TVVSVGVVRVHATLRVKESG, the amyloid nucleation score is 5.661 ± 0.056.
In the case of VRPRGTKRCFFGRNHWRSSF it was 0.428 ± 0.66; in that of DLYPENFASMRFRVTTSLVF, “inactive”.
IMIMYFCCDMGRLGP registered an amyloid nucleation score of 8.458 ± 0.056.
AQNYYMY displayed an amyloid nucleation score of 6.88 ± 0.087.
The result for IGNAMHSLHSIHVRCRHSLE reads 0.713 ± 0.74; that for GKGWKSVVYSNMGRVSGCCK, 2.81 ± 0.12; that for YRGQLARCDILHSWQTVCSM, -0.337 ± 0.49.
Turning to VATNCINMGS, the amyloid nucleation score was -0.197 ± 0.79.
With FGLSRL, the amyloid nucleation score stood at 0.713 ± 0.74.
In the case of TKTTWSDPGG, the amyloid nucleation score turned out to be 0.922 ± 0.43.
The result for GCGSNSDLLHPGIFGLCKLV reads -0.3 ± 0.31; that for TWDSRYGVACLV, -0.325 ± 0.33; that for ICDDNVAVEWLRLTVCTFRL, 0.396 ± 0.28.
The result for HNSLMRMVWLNKHPK reads -0.095 ± 0.8.
